This note sets out measurements from FireProtDB (doi:10.1110/ps.5101).

The conditions of the data set: Pseudomonas aeruginosa (strain ATCC 15692 / DSM 22644 / CIP 104116 / JCM 14847 / LMG 12228 / 1C / PRS 101 / PAO1); pH 7; 10 °C; GdnHCl; Fluorescence; sodium phosphate 50 mM; reversible: yes; whole UniProt chain shown.

B1: Cytochrome c-551 wild type, P00099 (protein)
chain: MKPYALLSLLATGTLLAQGAWAEDPEVLFKNKGCVACHAIDTKMVGPAYKDVAAKFAGQAGAEAELAQRIKNGSQGVWGPIPMPPNAVSDDEAQTLAKWVLSQK
Consider B1, for which the denaturant m value amounted to 3.3 kcal/mol/M, the “denaturant midpoint (higher = more stable)” value was determined as 1.8 M and the unfolding free energy came out at 6.1 kcal/mol.
